Consider 1 molecule from US20090186811A1, “Y2 Selective Receptor Agonists for Therapeutic Interventions” (priority 2004, published 2009).

Non-standard residues stand in square brackets, D forms with d. Primed or numbered codes have the meaning given here. No end group written: not given here. Aoc′ = not defined here

Test [1] addresses T1, human Y2 receptor (human), P49146.
T1 chain: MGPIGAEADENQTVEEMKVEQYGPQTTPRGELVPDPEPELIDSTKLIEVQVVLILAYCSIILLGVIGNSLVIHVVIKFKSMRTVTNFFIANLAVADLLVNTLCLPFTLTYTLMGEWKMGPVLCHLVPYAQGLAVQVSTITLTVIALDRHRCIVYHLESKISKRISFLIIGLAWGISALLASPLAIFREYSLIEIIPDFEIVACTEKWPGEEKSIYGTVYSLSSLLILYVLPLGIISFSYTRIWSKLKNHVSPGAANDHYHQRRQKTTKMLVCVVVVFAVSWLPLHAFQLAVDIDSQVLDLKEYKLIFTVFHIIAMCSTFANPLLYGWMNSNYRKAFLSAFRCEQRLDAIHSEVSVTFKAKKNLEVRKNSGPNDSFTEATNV
The experiment in a line: competition binding, 125I-PYY displaced, COS-7 cells with human Y2.

The target of test [2] is human Y4 receptor (human), P50391. The experiment in a line: competition binding, 125I-PP displaced, COS-7 cells with human Y4.
The target of test [3] is T1, human Y2 receptor (human), P49146. In words: cell-based or functional assay.
For test [4], the target named is T2, human Y1 receptor (human), P25929.
T2 chain: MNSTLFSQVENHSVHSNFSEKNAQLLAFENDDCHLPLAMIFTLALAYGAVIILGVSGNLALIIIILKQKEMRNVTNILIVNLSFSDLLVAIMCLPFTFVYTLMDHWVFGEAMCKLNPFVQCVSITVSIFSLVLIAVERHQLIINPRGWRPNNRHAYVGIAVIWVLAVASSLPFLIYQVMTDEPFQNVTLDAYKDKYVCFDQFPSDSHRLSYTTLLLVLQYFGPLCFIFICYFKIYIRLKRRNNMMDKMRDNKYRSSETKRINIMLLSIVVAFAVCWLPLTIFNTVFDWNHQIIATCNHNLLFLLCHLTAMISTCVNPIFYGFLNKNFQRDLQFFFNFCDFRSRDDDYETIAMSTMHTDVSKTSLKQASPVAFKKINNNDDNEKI
In words: cell-based or functional assay.

The target of test [5] is T3, human Y5 receptor (human), Q15761.
T3 chain: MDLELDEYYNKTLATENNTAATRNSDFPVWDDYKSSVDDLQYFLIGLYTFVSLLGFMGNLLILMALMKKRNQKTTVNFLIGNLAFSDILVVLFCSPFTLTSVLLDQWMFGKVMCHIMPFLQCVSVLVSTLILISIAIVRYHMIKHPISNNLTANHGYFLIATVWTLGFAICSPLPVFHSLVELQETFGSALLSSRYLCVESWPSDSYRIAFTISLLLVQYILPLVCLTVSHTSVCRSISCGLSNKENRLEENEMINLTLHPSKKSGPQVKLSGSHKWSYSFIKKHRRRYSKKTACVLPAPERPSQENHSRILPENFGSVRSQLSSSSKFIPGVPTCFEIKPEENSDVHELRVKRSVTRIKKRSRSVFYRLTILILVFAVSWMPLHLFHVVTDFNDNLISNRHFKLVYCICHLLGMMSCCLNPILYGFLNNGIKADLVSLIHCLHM
The experiment in a line: cell-based or functional assay.

Test [6] addresses human Y4 receptor (human), P50391. The experiment in a line: cell-based or functional assay.

Chain of human Y4 receptor (human), P50391 (P50391 whole entry): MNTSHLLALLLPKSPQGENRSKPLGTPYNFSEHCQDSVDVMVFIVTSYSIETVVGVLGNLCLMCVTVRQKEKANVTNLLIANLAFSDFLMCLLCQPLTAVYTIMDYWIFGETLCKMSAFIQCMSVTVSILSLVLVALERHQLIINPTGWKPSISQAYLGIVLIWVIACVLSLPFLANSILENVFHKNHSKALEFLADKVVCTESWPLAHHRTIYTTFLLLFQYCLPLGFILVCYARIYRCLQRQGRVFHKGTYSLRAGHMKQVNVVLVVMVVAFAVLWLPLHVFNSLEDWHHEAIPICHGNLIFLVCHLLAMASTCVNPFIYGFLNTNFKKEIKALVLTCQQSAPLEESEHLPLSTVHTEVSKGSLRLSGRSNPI

As usually defined, the IC50 is the point on the concentration scale where inhibition reaches its midpoint. Read a high IC50 as weaker potency. With YCIK[Aoc′]RH[dC]LNLVTRQRY (cysteine pairing not given here; reading uncertain) [[Cys2, Aoc5-24, D-Cys27]PYY], the IC50 was 0.87 nM in test [1] and 267 nM in test [2]. Also, the EC50 (inositol phosphate turnover) in test [3] was 3.7 nM; in test [4] it was above 1000 nM; in test [5], above 1000 nM; in test [6], above 1000 nM.
